# Laboratory results from patent publication US8206955B2, “Production of monatin and monatin precursors” (Cargill, Incorporated, priority 2003, dated 2012).
# Where a chain is given by its changes, count along the chain named.
# B1: R. sphaeroides 35053 msa: R. sphaeroides 35053 multiple substrate aminotransferase (SEQ ID NOS: 13 and 14) (protein)
# chain: MREPLALEIDPGHGGPLFLAIAEAITLDITRGRLRPGARLPGTRALARALGVHRNTVDAAYQELLTQGWLQAEPARGTFVAQDLPQGMLVHRPAPAPVEPVAMRAGLAFSDGAPDPELVPDKALARAFRRALLSPAFRAGADYGDARGTSSLREALAAYLASDRGVVADPARLLIARGSQMALFLVARAALAPGEAIAVEEPGYPLAWEAFRAAGAEVRGVPVDGGGLRIDALEAALARDPRIRAVYVTPHHQYPTTVTMGAARRLQLLELAERHRLALIEDDYDHEYRFEGRPVLPLAARAPEGLPLIYVGSLSKLLSPGIRLGYALAPERLLTRMAAARAAIDRQGDAPLEAALAELIRDGDLGRHARKARRVYRARRDLLAERLTAQLAGRAAFDLPAGGLALWLRCAGVSAETWAEAAGQAGLALLPGTRFALESPAPQAFRLGYAALDEGQIARAVEILARSFPG
# modifications: R. sphaeroides
# B2: B. subtilis araT: Bacillus subtilis aromatic aminotransferase (araT, SEQ ID NOS: 9 and 10) (protein, listed as Bacillus subtilis)
# chain: MEHLLNPKAREIEISGIRKFSNLVAQHEDVISLTIGQPDFFTPHHVKAAAKKAIDENVTSYTPNAGYLELRQAVQLYMKKKADFNYDAESEIIITTGASQAIDAAFRTILSPGDEVIMPGPIYPGYEPIINLCGAKPVIVDTTSHGFKLTARLIEDALTPNTKCVVLPYPSNPTGVTLSEEELKSIAALLKGRNVFVLSDEIYSELTYDRPHYSIATYLRDQTIVINGLSKSHSMTGWRIGFLFAPKDIAKHILKVHQYNVSCASSISQKAALEAVTNGFDDALIMREQYKKRLDYVYDRLVSMGLDVVKPSGAFYIFPSIKSFGMTSFDFSMALLEDAGVALVPGSSFSTYGEGYVRLSFACSMDTLREGLDRLELFVLKKREAMQTINNGV
# B3: L. amylovorus araT: Lactobacillus amylovorus aromatic aminotransferase (araT, SEQ ID NOS: 11 and 12), novel (protein, listed as Lactobacillus amylovorus)
# chain: MPELANDLGLSKKITDVKASGIRIFDNKVSAIPGIIKLTLGEPDMNTPEHVKQAAIKNIADNDSHYAPQKGKLELRKAISKYLKKITGIEYDPETEIVVTVGATEAINATLFAITNPGDKVAIPTPVFSLYWPVATLADADYVLMNTAEDGFKLTPKKLEETIKENPTIKAVILNYPTNPTGVEYSEDEIKALAKVIKDNHLYVITDEIYSTLTYGVKHFSIASLIPERAIYISGLSKSHAMTGYRLGYVAGPAKIMAEIGKVHGLMVTTTTDSSQAAAIEALEHGLDDPEKYREVYEKRRDYVLKELAEIEMQAVKPEGAFYIFAKIPAKYGKDDMKFALDLAFKEKVGITPGSAFGPGGEGHIRLSYASSDENLHEAMKRMKKVLQEDE
# B4: R. sphaeroides 2.4.1 tatA: Rhodobacter sphaeroides strain 2.4.1 tyrosine aminotransferase (SEQ ID NOS: 3 and 4) (protein)
# chain: MRSTTAPGPSGACMTISRSRKDDEGMLTALKPQPADKILQLIQMFREDARADKIDLGVGVYKDPTGLTPVMRAVKAAEKRLWEVETTKTYTGLADEPAYNAAMAKLILAGAVPADRVASVATPGGTGAVRQALELIRMASPEATVWISNPTWPNHLSIVKYLGIPMREYRYFDAETGAVDAEGMMEDLAQVKAGDVVLLHGCCHNPTGANPNPVQWLAICESLARTGAVPLIDLAYQGFGDGLEMDAAATRLLATRLPEVLIAASCSKNFGIYRERTGILIAIGEAAGRGTVQANLNFLNRQNYSFPPDHGARLVTMILEDETLSADWKAELEEVRLNMLTLRRQLADALQAETGSNRFGFVAEHRGMFSRLGITPAEVERLRTEHGVYMVGDSRLNIAGLNRTTVPVLARAVAKVLRG
# modifications: Rhodobacter sphaeroides
# B5: R. sphaeroides 35053 tatA: R. sphaeroides 35053 tyrosine aminotransferase (SEQ ID NOS: 5 and 6) (protein)
# chain: B4 chain with D95G, M184L, I219V
# modifications: Rhodobacter sphaeroides
# B6: Porcine type II-A: Glutamic-oxaloacetic transaminase from pig heart (type IIa), Sigma G7005 (protein, UniProt P00503 2-413, looked up)
# Aspartate aminotransferase, …: APPSVFAEVPQAQPVLVFKLIADFREDPDPRKVNLGVGAYRTDDCQPWVLPVVRKVEQRIANDSSLNHEYLPILGLAEFRTCASRLALGDDSPALQEKRVGGVQSLGGTGALRIGAEFLARWYNGTNNKDTPVYVSSPTWENHNGVFTTAGFKDIRSYRYWDTEKRGLDLQGFLSDLENAPEFSIFVLHACAHNPTGTDPTPEQWKQIASVMKRRFLFPFFDSAYQGFASGNLEKDAWAIRYFVSEGFELFCAQSFSKNFGLYNERVGNLTVVAKEPDSILRVLSQMEKIVRVTWSNPPAQGARIVARTLSDPELFHEWTGNVKTMADRILSMRSELRARLEALKTPGTWNHITDQIGMFSFTGLNPKQVEYLINEKHIYLLPSGRINMCGLTTKNLDYVATSIHEAVTKIQ
# B7: Porcine type I: commercial porcine glutamate-oxaloacetate aminotransferase, Sigma G2751 (protein, UniProt P00503 2-413, looked up)
# Aspartate aminotransferase, …: B6 Aspartate aminotransferase, …
# B8: E. coli aspC: Escherichia coli aspartate aminotransferase (aspC) (protein, UniProt P00509 1-396, looked up)
# Aspartate aminotransferase: MFENITAAPADPILGLADLFRADERPGKINLGIGVYKDETGKTPVLTSVKKAEQYLLENETTKNYLGIDGIPEFGRCTQELLFGKGSALINDKRARTAQTPGGTGALRVAADFLAKNTSVKRVWVSNPSWPNHKSVFNSAGLEVREYAYYDAENHTLDFDALINSLNEAQAGDVVLFHGCCHNPTGIDPTLEQWQTLAQLSVEKGWLPLFDFAYQGFARGLEEDAEGLRAFAAMHKELIVASSYSKNFGLYNERVGACTLVAADSETVDRAFSQMKAAIRANYSNPPAHGASVVATILSNDALRAIWEQELTDMRQRIQRMRQLFVNTLQEKGANRDFSFIIKQNGMFSFSGLTKEQVLRLREEFGVYAVASGRVNVAGMTPDNMAPLCEAIVAVL
# B9: E. coli tyrB: E. coli tyrosine aminotransferase (tyrB, SEQ ID NOS: 31 and 32) (protein)
# chain: VFQKVDAYAGDPILTLMERFKEDPRSDKVNLSIGLYYNEDGIIPQLQAVAEAEARLNAQPHGASLYLPMEGLNCYRHAIAPLLFGADHPVLKQQRVATIQTLGGSGALKVGADFLKRYFPESGVWVSDPTWENRVAIFAGAGFEVSTYPWYDEATNGVRFNDLLATLKTLPARSIVLLHPCCHNPTGADLTNDQWDAVIEILKARELIPFLDIAYQGFGAGMEEDAYAIRAIASAGLPALVSNSFSKIFSLYGERVGGLSVMCEDAEAAGRVLGQLKATVRRNYSSPPNFGAQVVAAVLNDEALKASWLAEVEEMRTRILAMRQELVKVLSTEMPERNFDYLLNQRGMFSYTGLSAAQVDRLREEFGVYLIASGRMCVAGLNTANVQRVAKAFAAVM
# modifications: E. coli
# Assay: tryptophan aminotransferase activity, production of indole-pyruvic acid
# Format: biochemical
# Details: cell extracts (CE); 5 mM L-tryptophan, 30 minutes at 30° C.
# Method: Cell extracts were analyzed by SDS-PAGE, and assayed for tryptophan aminotransferase activity by following production of indole-pyruvic acid using the following protocol. One mL reactions were carried out in 50 mM sodium tetraborate (pH 8.5), 0.5 mM EDTA, 0.5 mM sodium arsenate, 50 μM pyridoxal phosphate, 5 mM α-ketoglutarate, and 5 mM L-tryptophan. The reactions were initiated by the addition of cell free extracts or purified enzyme and were incubated 30 minutes at 30° C. 20% TCA (200 μL) was added to stop the reaction, and the precipitated protein was removed by centrifugation. The absorbance at 327 nm was measured and compared to a standard curve of freshly prepared indole-3-pyruvate in the assay buffer. Control reactions without the substrate tryptophan or using cell-free extracts from clones transformed with pET30a alone were also performed.
# Due to background from the native E. coli aminotransferases in cell extracts, the recombinant fusion proteins each containing an aminotransferase protein fused to the pET30 amino terminal HIS6-Tag/S-Tag (6×HIS tag disclosed as SEQ ID NO: 90) were purified using immobilized metal affinity chromatography with His-Bind cartridges following manufacturer's protocols (Novagen, Madison, Wis.). The HIS6-Tag sequence (SEQ ID NO: 90) of the fusion proteins binds to the divalent Ni^2+ cations immobilized on IDA-based His-Bind resin. The eluent fractions were desalted on PD-10 (Amersham Biosciences, Piscataway, N.J.) columns and eluted in 50 mM Tris, pH 7.0. Purified proteins were analyzed by SDS-PAGE and assayed for aminotransferase activity.
# Table 1 lists the specific activities measured in micrograms of indole-3-pyruvate (I3P) formed per milligram protein per minute. […] In these cases a ‘>’ precedes the specific activity number.
row,Molecule,Specific Activity [μg I3P/mg protein/min]
1,B1,3.97
2,B2,0
3,B3,1.26
4,B4,>41.2
5,B5,>62.3

# Same assay, conditions: commercial enzyme (Sigma)
row,Molecule,Specific Activity [μg I3P/mg protein/min]
1,B6,1.5
2,B7,1

# Same assay, conditions: purified (P); 5 mM L-tryptophan, 30 minutes at 30° C.
row,Molecule,Specific Activity
1,B1,0 μg I3P/mg protein/min
2,B2,1.5–4.5 μg I3P/mg protein/min
3,B3,0 μg I3P/mg protein/min
4,B8,800 μg I3P/mg protein/min
5,B4,1086 μg I3P/mg protein/min
6,B5,>486 μg I3P/mg protein/min
7,B9,1 μg I3P/mg protein/min

# Same assay, conditions: recombinant clones expressed in E. coli
row,Molecule,tryptophan aminotransferase activity (in words)
1,B2,little enzymatic activity
2,B8,significant levels of tryptophan aminotransferase activity
